Source: article PMC6202324, “C1GALT1 predicts poor prognosis and is a potential therapeutic target in head and neck cancer” (Oncogene, 2018)

Legend:
[1] = target: C1GALT1 (Core 1 β1,3-galactosyltransferase) (Homo sapiens, UniProt Q9NS00); assay: cellular thermal shift assay (CETSA, western blot) in SAS and OEC-M1 cells; destabilization, dose-dependent; format: cell-based
[2] = target: EGFR from C1GALT1 knockdown HNSCC cells (human (endogenous in SAS and OEC-M1)) (UniProt P00533); assay: ELISA; ligand-binding assay: 100 µg lysate of SAS cells (siCtr or siC1GALT1-2, 72 h) incubated 18 h on plates coated with anti-EGFR antibody; biotin-EGF at different concentrations, 37 °C, 3 h; streptavidin-HRP, O.D. 490 nm; Kd estimated from Scatchard plot
[3] = target: EGFR (endogenous, from control HNSCC cells) (human (endogenous in SAS and OEC-M1)) (UniProt P00533); assay: as above
[4] = target: EGFR from C1GALT1 knockdown HNSCC cells (human (endogenous in SAS and OEC-M1)) (UniProt P00533); assay: ELISA; ligand-binding assay: 100 µg lysate of OEC-M1 cells (siCtr or siC1GALT1-2, 72 h) incubated 18 h on plates coated with anti-EGFR antibody; biotin-EGF at different concentrations, 37 °C, 3 h; streptavidin-HRP, O.D. 490 nm; Kd estimated from Scatchard plot
[5] = target: EGFR (endogenous, from control HNSCC cells) (human (endogenous in SAS and OEC-M1)) (UniProt P00533); assay: as above

Sequence of C1GALT1 (Core 1 β1,3-galactosyltransferase) (Q9NS00 whole entry): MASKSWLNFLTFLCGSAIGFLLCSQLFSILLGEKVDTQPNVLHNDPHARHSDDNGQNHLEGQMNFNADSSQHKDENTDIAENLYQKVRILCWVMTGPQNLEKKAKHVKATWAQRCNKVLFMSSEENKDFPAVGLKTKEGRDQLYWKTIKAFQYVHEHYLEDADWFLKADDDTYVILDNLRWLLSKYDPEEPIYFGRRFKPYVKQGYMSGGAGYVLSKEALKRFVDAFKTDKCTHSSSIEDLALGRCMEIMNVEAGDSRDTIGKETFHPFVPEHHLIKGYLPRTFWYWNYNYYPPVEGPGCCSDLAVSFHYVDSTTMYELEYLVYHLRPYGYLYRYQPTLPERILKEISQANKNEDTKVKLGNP

| Molecule | cellular thermal shift assay (CETSA, western blot) in SAS and OEC-M1 cells; dest [1] | Kd [2] [nM] | Kd [3] [nM] | Kd [4] [nM] | Kd [5] [nM] |
| --- | --- | --- | --- | --- | --- |
| CCC(C)n1ncn(-c2ccc(N3CCN(c4ccc(OCC5COC(Cn6cncn6)(c6ccc(Cl)cc6Cl)O5)cc4)CC3)cc2)c1=O (centres unmarked) [ITZ, itraconazole] | melting temperature of C1GALT1 was decreased when SAS and OEC-M1 cells were treated with itraconazole | – | – | – | – |
| Biotin-EGF (ligand) | – | 42.3 | 32 | 58.8 | 26.1 |
